Biological target: metabotropic glutamate receptor 1 splice variant mGluR1a (endogenous, rat brain) (rat (endogenous in rat brain)), P23385
Test: SDS-PAGE and immunoblot of dimer bands in subcellular fractions
Details: remark: other sources report otherwise

B1: metabotropic glutamate receptor 1 splice variant mGluR1a (endogenous, rat brain), P23385 19-1199 (receptor)
chain: LPRMPDRKVLLAGASSQRSVARMDGDVIIGALFSVHHQPPAEKVPERKCGEIREQYGIQRVEAMFHTLDKINADPVLLPNITLGSEIRDSCWHSSVALEQSIEFIRDSLISIRDEKDGLNRCLPDGQTLPPGRTKKPIAGVIGPGSSSVAIQVQNLLQLFDIPQIAYSATSIDLSDKTLYKYFLRVVPSDTLQARAMLDIVKRYNWTYVSAVHTEGNYGESGMDAFKELAAQEGLCIAHSDKIYSNAGEKSFDRLLRKLRERLPKARVVVCFCEGMTVRGLLSAMRRLGVVGEFSLIGSDGWADRDEVIEGYEVEANGGITIKLQSPEVRSFDDYFLKLRLDTNTRNPWFPEFWQHRFQCRLPGHLLENPNFKKVCTGNESLEENYVQDSKMGFVINAIYAMAHGLQNMHHALCPGHVGLCDAMKPIDGRKLLDFLIKSSFVGVSGEEVWFDEKGDAPGRYDIMNLQYTEANRYDYVHVGTWHEGVLNIDDYKIQMNKSGMVRSVCSEPCLKGQIKVIRKGEVSCCWICTACKENEFVQDEFTCRACDLGWWPNAELTGCEPIPVRYLEWSDIESIIAIAFSCLGILVTLFVTLIFVLYRDTPVVKSSSRELCYIILAGIFLGYVCPFTLIAKPTTTSCYLQRLLVGLSSAMCYSALVTKTNRIARILAGSKKKICTRKPRFMSAWAQVIIASILISVQLTLVVTLIIMEPPMPILSYPSIKEVYLICNTSNLGVVAPVGYNGLLIMSCTYYAFKTRNVPANFNEAKYIAFTMYTTCIIWLAFVPIYFGSNYKIITTCFAVSLSVTVALGCMFTPKMYIIIAKPERNVRSAFTTSDVVRMHVGDGKLPCRSNTFLNIFRRKKPGAGNANSNGKSVSWSEPGGRQAPKGQHVWQRLSVHVKTNETACNQTAVIKPLTKSYQGSGKSLTFSDASTKTLYNVEEEDNTPSAHFSPPSSPSMVVHRRGPPVATTPPLPPHLTAEETPLFLADSVIPKGLPPPLPQQQPQQPPPQQPPQQPKSLMDQLQGVVTNFGSGIPDFHAVLAGPGTPGNSLRSLYPPPPPPQHLQMLPLHLSTFQEESISPPGEDIDDDSERFKLLQEFVYEREGNTEEDELEEEEDLPTASKLTPEDSPALTPPSPFRDSVASGSSVPSSPVSESVLCTPPNVTYASVILRDYKQSSSTL
stoichiometry N: 2
